Assay results from a protein production outcome set (Wang et al. 2014).

Assay: label from the status in PepcDB records
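Also: failed if final PepcDB status was selected cloned or expressed and not failed if soluble or beyond.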

Sequence | protein production
MKQEEEPWIDHLKQRVNEYEKPLPENDWNHFQTEFFTPYLHKRRRMKTMRIAAVFFLIFIPFATTFYFLQTEKHEAASPVVSLPACQPRSITGSPSIMPENKLLQDRTKSKTASLTRPPIQTSIHTDTANNIETECMPPVQDTIRDTESVHKRPSGHKHFALPYKRSGYTLALAISAGNNGASTGFINKTFSRGDIGSSHKDEIMYWSDFKDYLQEYPSDFPDAQAYEALLQIANDNTGRPMTEYTHYNLPVSIELSLRKSISRHWGVSAGLQYTYLSSESSIGEDSKWVKRQKLHYIGLSVKLDRRLYTTRTFSFYATGGGTIDKSVSGKLEQDFIVQKEKIYSSTENLKIKPFQFSIHAALGIQYNINPTLGAFIEPGTVFYFKDGSFKNTIRDKHPLHFNLQLGVRWNY | failed
MYADYEYYEKEYLLGKEPVIAERNYLYYEKQARAEVDKITFNRCRGLDEIPEEVKDCVCDVAEYLCKYDRYSGSDAPGPLASFGNDGETGTYDLSNSIYTESKRKEKIQETLYKHLADTGLLYSGR | failed
MEFLFILLPVFGIFAIGFIGQKTLKFDIPNLSKLTLYLMSPFLAFNTFYTNPLTMDYFYLAIYIFVLCLSLILLVSVISFLLGYNVQDRCALILASAFMNNGNYGTPVVLLVFGAAGLDIAVVLMVLQQLAMSTIGIYFAAKGSKDANGMKTVMTRVVRMPIAYGALLGLMLQLLHIPLPSALMTCVKLVGDAAIPTIMIVLGMQLAVISFRRIELDKVGIALVLKLLIAPFIAFGLTLILPVDEMTKQIMILLAAMPTAANTTLMAVQFDTKPDLVSSTTFISTVLSIITLPIVLYFLHPVF | failed
MTDQRWLIDKSALVRLTDSPDMEIWSNRIERGLVHITGVTRLEVGFSAECGEIARREFREPPLSAMPVEYLTPRIEDRALEVQTLLADRGHHRGPSIPDLLIAATAELSGLTVLHVDKDFDAIAALTGQKTERLTHRPPSA | not failed
MIGELVKDKILIKNIEDARLIYKMGYYGKPIGISKPKSAEEINSELILSLIEGVYLVKKGKLEIVSNGERLDFERLYQIGVTQIPRFRILYSVYEDLREKGYVVRSGIKYGADFAVYTIGPGIEHAPYLVIALDENSQISSNEILGFGRVSHSTRKELILGIVNLTNGKIRYIMFKWLKM | not failed
MGMMSSLRRLGKRRPVLGILFVVVLSIGLVGSYAIFSTPKAPVAPSESQAQAPDANQQAEAMQKAAQEQISKLETDIANLQKDLQAKPGDIATAVKLGDSQYNLGTLYLFVNGDQEKATQTFKAAVATYQQVLKLNPAEKGINLRLAGAALYAGDSKLAEDNFQAAIKADPNDNNARMTYGMYLASMKGDYQGAIDQWQEILKHNPDKDLATQVQEMIKQAETAKQDANKSAANQPPANQPQANGGQGSGK | failed
MKIVAITSCPNGIAHTYMAQEKLEQVAKEMGVDIKVETQGGVGAENVLTTQDIEEADGVIIAADKQVDLSRFVGKRLINENVREGIHNPRGLIQRIINQDAPIY | not failed
MTGEGRYEEVEAEARTLAALPRRPWRRRPPHWEARVLATGAAVMHGRMAEALDELDTLIAELEPVGLNSQMLRLIARSNRVVALSGLRRYAEAETVANGVLRELNQIAHRAPVSGLETNTLRHLATVLCGLARHEEAEAVVRGNLSRANGPAAGVLHTTLAQSLNGQGRYEEALAEVRRSPPRPPRYAAGHPDLVAAEALYGLGRRAEAEDAVRRSLADCERWLHPAHPRTGEARALLARVTGPKPGEESRGEPGE | failed
MGRLFVVNLEGKIYSCKHCKTHLATYEDIISKSFHCKHGKAYLFNKVANVSIGETEERLMMTGKHTVADIFCVSCGSIVGWKYETAHEKNQKYKEGKSVLERFKISGPDGSNYWVSSHGRHIGGSDADDA | failed
MSRYIEAGLSDIGTLGEYVAERPNKGFEPARRRAGVSHTTVSGPKLAVAVMAVSAVCCPCGCQCVLVTPLSPRSFTLCAHIIDTMNTLVDGEWRTDAYETTNEDGAFDRQDTTFRDRVEDDPDARFQPEAGRYHLYACRACPWAHRILVARKLLGLEDAITVDYVDPFRGEDGWQFTPEKAGCTPDTVNGSDYLREVYVEADPDATCRVTVPVLWDKQEETIVNNESEEILRMLDTEFDDVSDNDVDLYPEGYQDEVDRIIDDIYEPINNGVYRSGFADSQSAYDEAVEELFDALDHWDTVLEDQRFLAGDRLTEADICLFTTLVRFDEVYHTHFMCNHKLIREYDNLWPYLRDLYQLPGVAETVNMDHITEHYYTTHPDVSPKRIVPMGPDPDFEAVHDRDELPGDLPETLFPTA | failed
